The text below walks through data of paper PMC3223566.

As usually defined, the IC50 is the point on the concentration scale where inhibition reaches its midpoint.

Assay [1] addresses M. jannaschii RNA polymerase, wild type, reconstituted from 12 recombinant subunits (M. jannaschii) (UniProt Q58443).
For assay [2], the target named is RNAPΔRpo4/7, ten-subunit RNAP subassembly lacking Rpo4/7 (M. jannaschii) (UniProt Q58443).
Assay [3] has as its target M. jannaschii RNA polymerase, wild type, reconstituted from 12 recombinant subunits (M. jannaschii) (UniProt Q58443). This is another data set of the same source.
The target is the same in assay [4]. The source holds these as a separate data set.
Assay [5] shares this target. Put plainly: native gel or EMSA; competition: Spt4/5 or Spt4/5^A4R (0.33, 1, 7.5, 25 μM) added to a preformed complex of free RNAP and TFE^133*DL549 (0.74 μM). (A gel shift assay detects complexes by their altered migration in electrophoresis.)
The target is the same in assay [6]. Put plainly: native gel or EMSA; competition in the PIC: Spt4/5 (0, 16, 32, 137 μM) added to preformed PICs (DNA, TBP, TFB, RNAP) with fluorescently labeled TFE (0.75 μM).
Assay [7] shares this target. Put plainly: native gel or EMSA; competition in the TEC: RNAP (0.21 μM), NTS (20 μM), TS (15 μM), RNA (68 μM), TFE^G133*DL549 (0.74 μM), Spt4/5 or Spt4/5^A4R (1, 2.5, 15 μM).

B1: TFE (archaeal transcription initiation factor E), unlabeled wild type (natural protein)
chain: MLNDPLVQEVLFNIFEGDEKGFEVIDVLLEKGETTEEEIAKELGVKLNVVRKLLYKLYDARLVDYKRWKDEDTNWYSYTWLPTLEKLPYVVKKKINELIKDLEKKLEFEKNNMFFFCPNCNVRFTFEEAMDYGFSCPGCGNMLQEFDNSELIKDLEEQIKFLKEELKNNPFLK
Regarding B1, the stimulation of promoter-directed runoff transcription by TFE (0, 0.32, 8 μM) in assay [1] turned out to be 5 fold. The stimulation of promoter-directed transcription by TFE (8 μM) in assay [2] is below 1.2 fold.

B2: Spt4/5, transcription elongation factor, wild type (complex)
chain 1: MRACLKCKYLTNDEICPICHSPTSENWIGLLIVINPEKSEIAKKAGIDIKGKYALSVKE
chain 2: MIFAVRTMVGQEKNIAGLMASRAEKEQLDVYSILASESLKGYVLVEAETKGDVEELIKGMPRVRGIVPGTIAIEEIEPLLTPKKIIENIEKGDVVEIIAGPFKGERAKVIRVDKHKEEVTLELENAAVPIPITLPVEGVKIVSKHKD
For the molecule B2, the inhibition of promoter-directed runoff transcription by minimal complexes (DNA, TBP, TFB, RNAP; no TFE) in assay [3] was determined as 9.6 µM. The inhibition of transcript synthesis in promoter-directed transcription, Spt4/5 at 55.2 μM in assay [4] is above 10 fold. Further, the IC50 in assay [5] came to 550 nM; in assay [6], 29000 nM; in assay [7] it was 790 nM.
